From patent EP1270739A1
“And” between values parts separate entries of the source, which are not always exact repeats. Equal entries are not always repeated.

Tests used:
[1] = biological target: purified human placental alkaline phosphatase (hPLAP, SIGMA) (human) (UniProt P05187); assay: ELISA, plate coated with purified hPLAP; row labelled '0' (not explained, presumably no sample, blank); anti-mouse-HRP, TMB
[2] = biological target: purified human placental alkaline phosphatase (hPLAP, SIGMA) (human) (UniProt P05187); assay: ELISA, plate coated with purified hPLAP; mAb 64 ng/ml in PBS, diluted 1:8; anti-mouse-HRP, TMB
[3] = biological target: purified human placental alkaline phosphatase (hPLAP, SIGMA) (human) (UniProt P05187); assay: ELISA, plate coated with purified hPLAP; mAb 64 ng/ml spiked in negative serum, diluted 1:2; anti-mouse-HRP, TMB
[4] = biological target: purified human placental alkaline phosphatase (hPLAP, SIGMA) (human) (UniProt P05187); assay: ELISA, plate coated with purified hPLAP; mAb 64 ng/ml in PBS, diluted 1:2; anti-mouse-HRP, TMB
[5] = biological target: purified human placental alkaline phosphatase (hPLAP, SIGMA) (human) (UniProt P05187); assay: ELISA, plate coated with purified hPLAP; mAb 64 ng/ml spiked in negative serum, undiluted; anti-mouse-HRP, TMB
[6] = biological target: purified human placental alkaline phosphatase (hPLAP, SIGMA) (human) (UniProt P05187); assay: ELISA, plate coated with purified hPLAP; mAb 64 ng/ml in PBS, diluted 1:32; anti-mouse-HRP, TMB
[7] = biological target: purified human placental alkaline phosphatase (hPLAP, SIGMA) (human) (UniProt P05187); assay: ELISA, plate coated with purified hPLAP; mAb 64 ng/ml spiked in negative serum, diluted 1:16; anti-mouse-HRP, TMB
[8] = biological target: purified human placental alkaline phosphatase (hPLAP, SIGMA) (human) (UniProt P05187); assay: ELISA, plate coated with purified hPLAP; mAb 64 ng/ml in PBS, undiluted; anti-mouse-HRP, TMB
[9] = biological target: purified human placental alkaline phosphatase (hPLAP, SIGMA) (human) (UniProt P05187); assay: ELISA, plate coated with purified hPLAP; mAb 64 ng/ml in PBS, diluted 1:4; anti-mouse-HRP, TMB
[10] = biological target: purified human placental alkaline phosphatase (hPLAP, SIGMA) (human) (UniProt P05187); assay: ELISA, plate coated with purified hPLAP; mAb 64 ng/ml spiked in negative serum, diluted 1:8; anti-mouse-HRP, TMB
[11] = biological target: purified human placental alkaline phosphatase (hPLAP, SIGMA) (human) (UniProt P05187); assay: ELISA, plate coated with purified hPLAP; mAb 64 ng/ml spiked in negative serum, diluted 1:64; anti-mouse-HRP, TMB
[12] = biological target: purified human placental alkaline phosphatase (hPLAP, SIGMA) (human) (UniProt P05187); assay: ELISA, plate coated with purified hPLAP; mAb 64 ng/ml in PBS, diluted 1:64; anti-mouse-HRP, TMB
[13] = biological target: purified human placental alkaline phosphatase (hPLAP, SIGMA) (human) (UniProt P05187); assay: ELISA, plate coated with purified hPLAP; mAb 64 ng/ml spiked in negative serum, diluted 1:4; anti-mouse-HRP, TMB
[14] = biological target: purified human placental alkaline phosphatase (hPLAP, SIGMA) (human) (UniProt P05187); assay: ELISA, plate coated with purified hPLAP; mAb 64 ng/ml spiked in negative serum, diluted 1:32; anti-mouse-HRP, TMB
[15] = biological target: purified human placental alkaline phosphatase (hPLAP, SIGMA) (human) (UniProt P05187); assay: ELISA, plate coated with purified hPLAP; mAb 64 ng/ml in PBS, diluted 1:16; anti-mouse-HRP, TMB

UniProt P05187, sequence (P05187 23-506 limits assumed): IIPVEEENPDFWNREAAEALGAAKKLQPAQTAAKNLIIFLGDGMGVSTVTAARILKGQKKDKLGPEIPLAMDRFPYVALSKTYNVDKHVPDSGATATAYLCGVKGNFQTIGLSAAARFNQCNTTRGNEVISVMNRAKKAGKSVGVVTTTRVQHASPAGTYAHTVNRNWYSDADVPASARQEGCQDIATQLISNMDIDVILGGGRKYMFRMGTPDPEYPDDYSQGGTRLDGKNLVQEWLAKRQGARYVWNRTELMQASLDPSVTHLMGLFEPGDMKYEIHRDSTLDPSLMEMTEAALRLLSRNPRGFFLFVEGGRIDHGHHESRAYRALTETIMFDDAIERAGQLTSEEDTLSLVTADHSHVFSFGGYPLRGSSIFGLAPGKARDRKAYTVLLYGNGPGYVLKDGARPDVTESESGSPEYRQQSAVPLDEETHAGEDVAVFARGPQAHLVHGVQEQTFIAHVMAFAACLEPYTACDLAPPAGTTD

For “serum of mice injected with saline (negative control serum)”, the absorbance at 450 nm [1] was 0.005 absorbance.

Work on “mouse monoclonal antibody to PLAP (clone 8B6, Sigma Immunochemicals)” yielded an absorbance at 450 nm [2] of 0.282 absorbance, an absorbance at 450 nm [3] of 0.439 absorbance and an absorbance at 450 nm [4] of 0.487 absorbance. For the same substance, the absorbance at 450 nm [5] was 0.546 absorbance, the absorbance at 450 nm [6] was 0.091 absorbance and the absorbance at 450 nm [1] was 0.007 absorbance and 0.009 absorbance. The absorbance at 450 nm [7] was 0.123 absorbance, the absorbance at 450 nm [8] was 0.486 absorbance and the absorbance at 450 nm [9] was 0.424 absorbance. The absorbance at 450 nm [10] was 0.209 absorbance, the absorbance at 450 nm [11] was 0.042 absorbance and the absorbance at 450 nm [12] was 0.047 absorbance. The absorbance at 450 nm [13] was 0.341 absorbance, the absorbance at 450 nm [14] was 0.071 absorbance and the absorbance at 450 nm [15] was 0.169 absorbance.
